The values that follow come from patent US20220387557A1 (OXFORD UNIVERSITY INNOVATION, published 2022).

Experiment [1] concerns the target T1, Fc tagged human TNFR1 (Sino Biological) (human, UniProt P19438 22-211, limits assumed).
T1 construct: Bought reagent; also called hTNFR1; hTNFR1-Fc; not shown: Fc tag of the bought protein
T1 sequence (looked up): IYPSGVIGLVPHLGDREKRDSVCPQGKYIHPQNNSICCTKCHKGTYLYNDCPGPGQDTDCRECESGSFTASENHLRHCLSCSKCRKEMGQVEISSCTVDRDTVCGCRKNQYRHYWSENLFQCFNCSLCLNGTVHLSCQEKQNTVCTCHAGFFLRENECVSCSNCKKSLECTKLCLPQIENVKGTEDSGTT
The experiment in a line: SPR, Biacore T200 single cycle kinetics, receptor-Fc captured on Protein A chip, TNF 1.67-15 nM. On the procedure: (§1) Single cycle kinetic analysis was performed using a Biacore T200 (serial no. 1909913) running Biacore T200 Evaluation Software V2.0.1 (Uppsala, Sweden). All experiments were run at 25° C. with HBS-P+ running buffer (pH 7.4) (GE Healthcare, Little Chalfont, UK).
(§2) Due to the limit in the number of available flow cells for analysis (three Fc per analysis, Fc2, Fc3 and Fc4, with Fc1 always being used as blank reference for non-specific subtraction), receptor binding was assessed in two separate overlapping runs using either: hTNFR1 (Fc2), hTNFR2 (Fc3) and mTNFR1 (Fc4), or; hTNFR1 (Fc2), […] and mTNFR2 (Fc4). Receptors were diluted in running buffer to a concentration of ˜4 μg/mL and at the start of each cycle loaded onto Fc2, Fc3 and Fc4 of a Protein A chip (GE Healthcare, Little Chalfont, UK) at a flow rate of 10 μL/min to give an RU of 40-100. The surface was then allowed to stabilise. Single cycle kinetic data was obtained at a flow rate of 45 μL/min. […] The association phase for the three injections of increasing concentrations of TNF was monitored for 240 seconds and a single dissociation phase was measured for 2700 seconds following the last injection of TNF. Regeneration of the Protein A surface was conducted using 10 mM glycine-HCl pH 1.5. The signal from the reference channel Fc1 (no receptor) was subtracted from that of Fc2, Fc3 and Fc4 to correct for differences in non-specific binding to a reference surface.
In general terms: Surface plasmon resonance follows binding to a sensor surface in real time, without labels.

Experiment [2] has as its target T2, Fc tagged mouse TNFR1 (Sino Biological) (mouse, UniProt P25118 22-212, limits assumed).
T2 construct: Bought reagent; also called mTNFR1; mTNFR1-Fc; not shown: Fc tag of the bought protein
T2 sequence (looked up): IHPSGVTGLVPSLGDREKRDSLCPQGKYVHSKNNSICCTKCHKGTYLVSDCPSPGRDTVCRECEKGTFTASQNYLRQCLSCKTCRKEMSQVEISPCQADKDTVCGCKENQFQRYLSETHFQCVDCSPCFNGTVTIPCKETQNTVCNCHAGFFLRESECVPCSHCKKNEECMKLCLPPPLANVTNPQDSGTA
The description is as above. On the procedure: as §1, §2

For experiment [3], the target named is T1, Fc tagged human TNFR1 (Sino Biological). The experiment in a line: SPR, Biacore T200 multi cycle kinetics, receptor-Fc captured on Protein A chip, TNF 1.25-40 nM, 1:1 model. How it is done:
(§3) Multi cycle kinetics analysis of binding to hTNFR1, hTNFR2, mTNFR1 and mTNFR2 was performed on the 10 lead variants using a Biacore T200 (serial no. 1909913) instrument running Biacore T200 Evaluation Software V3.0.1 (Uppsala, Sweden) to characterise further the binding to these receptors.
(§4) As with the single cycle kinetics, receptor binding was assessed in two separate experiments. In the first set of experiments binding to hTNFR1 (Fc2), hTNFR2 (Fc3) and mTNFR1 (Fc4) was assessed. In the second set of experiments the extent of mTNF2 (Fc4) binding was assessed using hTNFR1 (Fc2) and hTNFR2 (Fc3) as controls. All receptors were diluted in running buffer to a concentration of ˜4 μg/mL and at the start of each cycle loaded onto Fc2, Fc3 and Fc4 of a Protein A CM5 chip and captured at a flow rate of 10 μL/min to give an RU of ˜40-100. The surface was then allowed to stabilise. All kinetic data was obtained using a flow rate of 75 μl/min to minimise any potential mass transfer effects. […] The association phase of TNF was monitored for 280 seconds and the dissociation phase was measured for 2100 seconds. […] Regeneration of the Protein A surface was conducted using two injections of 10 mM glycine-HCL pH 1.5 at the end of each cycle. The signal from the reference channel Fc1 was subtracted from that of Fc2, Fc3 and Fc4 to correct for differences in non-specific binding to a reference surface, and a global Rmax parameter was used in the 1-to-1 binding model.

Experiment [4] has as its target T2, Fc tagged mouse TNFR1 (Sino Biological). Described as above. How it is done:
as §3, §4

In experiment [5] the target is T3, Fc tagged human TNFR2 (Sino Biological) (human, UniProt P20333 23-257).
T3 construct: Bought reagent; also called hTNFR2; hTNFR2-Fc; not shown: Fc tag of the bought protein
T3 sequence (looked up): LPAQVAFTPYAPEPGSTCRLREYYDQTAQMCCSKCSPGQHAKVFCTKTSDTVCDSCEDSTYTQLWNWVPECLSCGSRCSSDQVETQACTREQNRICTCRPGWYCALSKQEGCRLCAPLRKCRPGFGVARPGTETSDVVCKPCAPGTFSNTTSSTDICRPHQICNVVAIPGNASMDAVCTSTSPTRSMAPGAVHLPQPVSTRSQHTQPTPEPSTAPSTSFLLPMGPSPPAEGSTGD
The experiment in a line: SPR, Biacore T200 multi cycle kinetics, 1:1 model; ** = a residual amount of binding is observed but 1 to 1 model is a poor fit. On the procedure: as §3
as §4, with “The signal from the reference channel Fc1 was subtracted from that of Fc2, Fc3 and Fc4 to correct for differences in non-specific binding to a reference surface, and a global Rmax parameter was used in the 1-to-1 binding model.” left out

For experiment [6], the target named is T4, Fc tagged mouse TNFR2 (Sino Biological) (mouse, UniProt P25119 23-258).
T4 construct: Bought reagent; also called mTNFR2; mTNF2; not shown: Fc tag of the bought protein
T4 sequence (looked up): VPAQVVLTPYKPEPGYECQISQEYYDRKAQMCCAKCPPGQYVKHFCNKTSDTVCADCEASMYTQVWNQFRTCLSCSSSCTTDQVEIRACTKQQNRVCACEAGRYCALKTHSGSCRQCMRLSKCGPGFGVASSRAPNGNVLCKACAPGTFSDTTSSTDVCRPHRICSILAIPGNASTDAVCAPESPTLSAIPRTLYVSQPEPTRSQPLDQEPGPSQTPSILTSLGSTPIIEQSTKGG
The experiment in a line: SPR (Biacore T200) single cycle kinetics, Fc-tagged receptor captured on Protein A chip, TNF protein as analyte at 1.67-15 nM. How it is done: as §1, §2
(§5) Controls were used to ensure the integrity of the receptors during the Biacore run.

The target of experiment [7] is T1, Fc tagged human TNFR1 (Sino Biological). Kind of experiment: SPR, Biacore single cycle kinetics, stability study, before freezing (t=0). How it is done: as §2
(§6) At day zero (prior to freezing) and following thawing on ice after 3 months and 1 year the following assays were performed: [0341] SDS-PAGE [0342] OD280 nm [0343] Single cycle Biacore for binding to hTNFR1, hTNFR2 and mTNFR1

Experiment [8] has as its target T2, Fc tagged mouse TNFR1 (Sino Biological). The description is as above. How it is done:
as §2, §6

In experiment [9] the target is T1, Fc tagged human TNFR1 (Sino Biological). The experiment in a line: SPR, Biacore single cycle kinetics, stability study, after 1 year at -20° C. On the procedure: as §2, §6
Experiment [10] has as its target T2, Fc tagged mouse TNFR1 (Sino Biological). Described as above. How it is done:
as §2, §6

Experiment [11] deals with T1, Fc tagged human TNFR1 (Sino Biological). Kind of experiment: SPR, Biacore single cycle kinetics, stability study, after 1 year at -80° C. How it is done: as §2, §6
Experiment [12] addresses T2, Fc tagged mouse TNFR1 (Sino Biological). The experiment is described as above. How it is done: as §2, §6
Experiment [13] has as its target T3, Fc tagged human TNFR2 (Sino Biological). The experiment in a line: SPR (Biacore T200) single cycle kinetics, Fc-tagged receptor captured on Protein A chip, TNF protein as analyte at 1.67-15 nM. How it is done:
as §1, §2, §5

For experiment [14] the target is unchanged. Kind of experiment: phage binding test on Fc tagged receptor.
The target of experiment [15] is T4, Fc tagged mouse TNFR2 (Sino Biological). Kind of experiment: phage binding test on Fc tagged receptor.

B1: TNF mutein C8 (ligand)
chain: VRSSSRTPSDKPVAHVVANPQAEGQLQWLNRRANALLANGVELRDNQLVVPSEGLYLIYSQVLFKGQGCPSTHVLLTHTISRISQTHDGKVNLLSAIKSPCQRETPEGAEAKPWYEPIYLGGVFQLEKGDRLSAEINRPDYLDFAESGQVYFGIIAL
notes: Human TNF mutein, SQTHDG at positions 84-89; not shown: C-terminal FLAG tag and His6 tag from vector pANT65
A word on the Kd: it is a measure of binding affinity in units of concentration. Read a low Kd as higher affinity. Turning to B1, the Kd amounted to 0.188 nM in [1]; 0.363 nM in experiment [2]; 0.261 nM in [3]; 0.112 nM in experiment [4]; 4.13 nM in experiment [5]. The binding result in experiment [6] is given as “no binding (tested: 15 nM)”.

B2: TNF mutein F7 (ligand)
chain: VHSSSRTPSDKPVAHVVANPQAEGQLQWLNRRANALLANGVELRDNQLVVPSEGLYLIYSQVLFKGQGCPSTHVLLTHTISRISETVVGKVNLLSAIKSPCQRETPEGAEAKPWYEPIYLGGVFQLEKGDRLSVEINRPDYLDFAESGQVYFGIIAL
notes: Human TNF mutein, SETVVG at positions 84-89; not shown: C-terminal FLAG tag and His6 tag from vector pANT65
Regarding B2, the Kd was found to be 0.022 nM in [7]; 0.116 nM in [8]; 0.0262 nM in experiment [9]; 0.111 nM in experiment [10]; 0.0353 nM in experiment [11]; 0.165 nM in [12]. Further, the Kd in experiment [1] came out at 0.0424 nM; in experiment [2], 0.0827 nM; in [3], 0.0465 nM; in experiment [4] it was 0.208 nM. Moreover, the binding result in experiment [13] and in experiment [6] was “no binding (tested: 15 nM)” in each case.

B3: TNF mutein G4 (ligand)
chain: VRSSSRTPSDKPVAHVVANPQAEGQLQWLNRRANALLANGVELRDNQLVVPSEGLYLIYSQVLFKGQGCPSTHVLLTHTISRISSTYNPKVNLLSAIKSPCQRETPEGAEAKPWYEPIYLGGVFQLEKGDRLSAEINRPDYLDFAESGQVYFGIIAL
notes: Human TNF mutein, SSTYNP at positions 84-89; also called mutTNF G4; mutTNF; not shown: C-terminal FLAG tag and His6 tag from vector pANT65
Regarding B3, the Kd in experiment [7] came out at 0.0173 nM; in [8], 0.07 nM; in experiment [9], 0.0331 nM; in experiment [10], 0.0692 nM; in [11] it was 0.0399 nM; in experiment [12], 0.0458 nM. Further, the dissociation constant Kd in [1] was 0.0171 nM; in experiment [2] it was 0.0407 nM; in experiment [3], 0.00872 nM; in [4] it was 0.14 nM. For the same molecule, the binding result in experiment [13] and in experiment [6] was “no binding (tested: 15 nM)” throughout.

B4: TNF variant C9 (ligand)
chain: VRSSSRTPSDKPVAHVVANPQAEGQLQWINGRANALLANGVELRDNQLVVPSEGLYLIYSQVLFKGQGCPSTHVLLTHTISRIAVTYQTKVNLLSAIKSPCQRETPEGAEAKPWYEPIYLGGVFQLEKGDRLSAEINRPDYLDDADSGQVYFGIIAL
notes: Human TNF variant from Library 2, AVTYQT at positions 84-89; not shown: C-terminal FLAG tag and His6 tag from vector pANT65
With B4, the Kd came to 0.0248 nM in experiment [1]; 0.607 nM in experiment [2]; 0.0717 nM in [3]; 1.13 nM in experiment [4]; 289 nM in [5]. Besides, the binding result in experiment [6] is “no binding (tested: 15 nM)”.

B5: phage displaying mTNF (gene III fusion, pANT65) (other, mouse, UniProt P06804 80-235, looked up)
chain: LRSSSQNSSDKPVAHVVANHQVEEQLEWLSQRANALLANGMDLKDNQLVVPADGLYLVYSQVLFKGQGCPDYVLLTHTVSRFAISYQEKVNLLSAVKSPCPKDTPEGAELKPWYEPIYLGGVFQLEKGDQLSAEVNLPKYLDFAESGQVYFGVIAL
notes: also called mTNF (phage); not shown: FLAG tag, His6 tag and phage gene III protein of pANT65
On to B5, for which the binding result in experiment [14] and in experiment [15] was “binds” each time.
